Laboratory results published in patent US20240010750A1 (Bayer, published 2024).

Legend:
[1] = target: T1, cynomolgus alpha2-Antiplasmin (cynomolgus (Macaca fascicularis), UniProt P08697 28-491 (human entry)); test: cell-based or functional assay
T1 chain: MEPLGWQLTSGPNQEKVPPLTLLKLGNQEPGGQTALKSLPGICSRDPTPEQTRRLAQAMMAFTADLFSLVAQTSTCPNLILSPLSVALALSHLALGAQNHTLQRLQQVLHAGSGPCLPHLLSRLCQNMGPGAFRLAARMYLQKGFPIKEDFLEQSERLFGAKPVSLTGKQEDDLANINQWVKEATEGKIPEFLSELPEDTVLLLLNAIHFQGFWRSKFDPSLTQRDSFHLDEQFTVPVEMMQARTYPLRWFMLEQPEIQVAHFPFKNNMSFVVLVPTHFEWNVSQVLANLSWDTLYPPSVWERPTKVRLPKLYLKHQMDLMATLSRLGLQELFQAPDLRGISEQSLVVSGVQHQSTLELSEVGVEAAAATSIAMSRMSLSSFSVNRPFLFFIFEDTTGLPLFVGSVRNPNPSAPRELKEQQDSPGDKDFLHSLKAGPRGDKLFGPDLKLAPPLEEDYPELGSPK

[2] = target: T2, human alpha2-Antiplasmin (human, UniProt P08697 40-491); test: ELISA, coated antigen, 1st exp.
T2 construct: Bought (antibodies online, ABIN2544306); also called human A2AP; a2AP
T2 sequence: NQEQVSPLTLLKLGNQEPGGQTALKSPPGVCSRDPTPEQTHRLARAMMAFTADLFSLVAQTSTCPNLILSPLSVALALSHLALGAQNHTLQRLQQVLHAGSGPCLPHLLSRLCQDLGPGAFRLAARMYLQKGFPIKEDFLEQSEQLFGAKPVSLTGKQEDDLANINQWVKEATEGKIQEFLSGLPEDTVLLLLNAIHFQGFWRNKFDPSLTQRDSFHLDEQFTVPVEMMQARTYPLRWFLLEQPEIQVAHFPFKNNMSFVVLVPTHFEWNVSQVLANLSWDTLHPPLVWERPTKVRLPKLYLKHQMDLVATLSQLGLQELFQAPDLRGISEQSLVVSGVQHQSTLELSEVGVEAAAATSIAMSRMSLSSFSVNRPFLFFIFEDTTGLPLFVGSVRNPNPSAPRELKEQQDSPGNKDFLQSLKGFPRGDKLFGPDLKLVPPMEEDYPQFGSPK

[3] = target: T3, rabbit alpha2-Antiplasmin (rabbit (Oryctolagus cuniculus)); test: ELISA, coated antigen, 1st exp.
T3 construct: Made in house in HEK293 cells, purified by Ni-IMAC and SEC (a His tag is implied but not described); also called rabbit A2AP; Oryctolagus cuniculus A2AP
T3 chain: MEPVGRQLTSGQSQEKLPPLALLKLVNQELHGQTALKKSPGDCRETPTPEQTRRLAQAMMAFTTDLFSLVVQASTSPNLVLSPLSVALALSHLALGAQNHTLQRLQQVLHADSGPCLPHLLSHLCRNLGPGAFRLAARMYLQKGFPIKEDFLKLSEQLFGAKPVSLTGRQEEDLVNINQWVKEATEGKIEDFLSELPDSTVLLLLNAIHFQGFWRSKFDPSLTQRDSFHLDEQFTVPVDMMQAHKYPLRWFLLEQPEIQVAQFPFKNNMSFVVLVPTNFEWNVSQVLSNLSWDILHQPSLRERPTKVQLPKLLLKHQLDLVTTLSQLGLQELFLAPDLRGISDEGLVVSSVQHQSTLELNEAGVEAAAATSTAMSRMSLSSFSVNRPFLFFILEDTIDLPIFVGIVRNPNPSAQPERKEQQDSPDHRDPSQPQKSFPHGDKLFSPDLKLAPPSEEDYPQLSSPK

[4] = target: T1, cynomolgus alpha2-Antiplasmin; test: ELISA, coated antigen, 1st exp.
[5] = target: T1, cynomolgus alpha2-Antiplasmin; test: cell-based or functional assay
[6] = target: T1, cynomolgus alpha2-Antiplasmin; test: ELISA, coated antigen (FIG. 6.1 legend)
[7] = target: T4, A2AP peptides with the consensus motif SRMSLSS (human); test: PEPperCHIP peptide microarray, antibody at 10 µg/ml
T4 construct: Consensus motif shared by the reacting peptides of the PEPperCHIP arrays (linear 15-mers; cyclic 7-, 10- and 13-mers closed by a thioether)
T4 peptide: SRMSLSS
Description: Antibodies were incubated on the Microarray in concentrations of 1 μg/ml, 10 μg/ml and 100 μg/ml in incubation buffer. Incubation time was 16 h at 4° C. and shaking at 140 rpm.
As secondary antibody the goat anti-human IgG (Fc) DyLight680 was used at a dilution of 1:5000. This detection antibody was incubated on the Microarray at 45 min staining in incubation buffer at room temperature.
Microarray image analysis was done with PepSlide® Analyzer. A software algorithm was used to break down fluorescence intensities of each spot into raw, foreground and background signal, and calculated averaged median foreground intensities and spot-to-spot deviations of spot duplicates. Based on averaged median foreground intensities, an intensity map was generated and interactions in the peptide map highlighted by an intensity color code with red for high and white for low spot intensities. Averaged spot intensities of the assays were plotted with the antibody samples against the antigen sequence from the N- to the C-terminus to visualize overall spot intensities and signal-to-noise ratios. The intensity plots were correlated with peptide and intensity maps as well as with visual inspection of the microarray scans to identify the epitopes of the tested antibodies.

function blocking activity IC50, 1st exp. (FIG. 6.2) [1]: 160 nM | function blocking activity IC50, 2nd exp. [1]: 160 nM | EC50 [2]: 120 nM | EC50 [3]: 6 nM | EC50 [4]: 90 nM | EC50 (read off the curve); function blocking assay (Example 4), RFU of plasmin substrate cleavage [5]: ~200 nM | EC50 [6]: 99 nM | signal-to-noise-ratio at 10 µg/ml [7]: 2260
B1: TPP-12387 hIgG1 (antibody, V domains shown)
VH: EVQLLESGGGLVQPGGSLRLSCAASGFTFDDYAMSWVRQAPGKGLEWVSAIGTGGGTYYADSVKGRFTISRDNSKNTLYLQMNSLRAEDTAVYYCAREYYDSSGYYHLDYWGQGTLVTVSS
VL: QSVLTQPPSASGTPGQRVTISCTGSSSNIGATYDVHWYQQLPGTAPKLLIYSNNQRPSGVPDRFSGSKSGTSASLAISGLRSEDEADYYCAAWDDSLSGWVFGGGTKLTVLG
notes: Fully human IgG1 lambda from the BioInvent n-CoDeR Fab lambda library; parental lead antibody
